Experimental findings from article PMC10140031 are described below.

The target of test [1] is His-ISG65_(18-363)-Avi, C-terminally biotinylated (T. b. gambiense). Put plainly: SPR; biotinylated His-ISG65_(18-363)-Avi immobilised on Series S sensor chip CAP, BIAcore T200, 25 °C; 20 mM HEPES pH 7.5, 150 mM NaCl, 3 mM EDTA, 0.005% TWEEN-20; analytes C3d and C3d mutants (0.78-50 nM), native C3, C3b, C3MA, C3c.
For test [2], the target named is His-C3d-Avi, biotinylated (human). In words: SPR; biotinylated His-C3d-Avi immobilised on Series S sensor chip CAP, BIAcore T200, 25 °C; 20 mM HEPES pH 7.5, 150 mM NaCl, 3 mM EDTA, 0.005% TWEEN-20; analytes ISG65 and ISG65 mutants 1.5-100 nM. On the technique in general: Surface plasmon resonance follows binding to a sensor surface in real time, without labels.
Test [3] has as its target Alexa Fluor 594 labelled human C3b (human) (UniProt P01024). In words: flow cytometry on cells; competition: recombinant ISG65 at 1.5-fold molar excess preincubated with AF594 labelled C3b for 10 min before addition to T. b. gambiense cells on ice. A general note: In flow cytometry, cells or beads pass a laser one at a time.
Test [4] deals with native human complement C3 (human) (UniProt P01024).
Chain of native human complement C3 (human) (P01024 23-667, chain 1 of 2): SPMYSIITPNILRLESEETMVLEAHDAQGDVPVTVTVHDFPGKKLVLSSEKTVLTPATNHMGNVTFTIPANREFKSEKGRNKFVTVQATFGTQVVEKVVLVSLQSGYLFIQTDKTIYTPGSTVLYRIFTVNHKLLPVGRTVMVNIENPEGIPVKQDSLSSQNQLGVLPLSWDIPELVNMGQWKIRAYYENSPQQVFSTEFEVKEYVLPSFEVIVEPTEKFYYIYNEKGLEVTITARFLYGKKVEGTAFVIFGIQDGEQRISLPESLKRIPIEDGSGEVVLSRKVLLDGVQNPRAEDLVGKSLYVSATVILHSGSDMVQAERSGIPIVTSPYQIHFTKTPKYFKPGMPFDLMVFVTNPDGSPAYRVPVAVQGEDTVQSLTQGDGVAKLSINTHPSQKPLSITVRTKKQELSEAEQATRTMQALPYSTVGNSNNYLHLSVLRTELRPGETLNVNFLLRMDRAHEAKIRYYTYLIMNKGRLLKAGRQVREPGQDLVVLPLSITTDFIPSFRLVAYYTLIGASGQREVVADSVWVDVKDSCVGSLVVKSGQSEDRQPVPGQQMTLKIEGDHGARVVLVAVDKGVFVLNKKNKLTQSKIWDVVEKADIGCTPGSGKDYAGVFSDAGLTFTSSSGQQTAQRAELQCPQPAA
Chain of native human complement C3 (human) (P01024 672-1663, chain 2 of 2): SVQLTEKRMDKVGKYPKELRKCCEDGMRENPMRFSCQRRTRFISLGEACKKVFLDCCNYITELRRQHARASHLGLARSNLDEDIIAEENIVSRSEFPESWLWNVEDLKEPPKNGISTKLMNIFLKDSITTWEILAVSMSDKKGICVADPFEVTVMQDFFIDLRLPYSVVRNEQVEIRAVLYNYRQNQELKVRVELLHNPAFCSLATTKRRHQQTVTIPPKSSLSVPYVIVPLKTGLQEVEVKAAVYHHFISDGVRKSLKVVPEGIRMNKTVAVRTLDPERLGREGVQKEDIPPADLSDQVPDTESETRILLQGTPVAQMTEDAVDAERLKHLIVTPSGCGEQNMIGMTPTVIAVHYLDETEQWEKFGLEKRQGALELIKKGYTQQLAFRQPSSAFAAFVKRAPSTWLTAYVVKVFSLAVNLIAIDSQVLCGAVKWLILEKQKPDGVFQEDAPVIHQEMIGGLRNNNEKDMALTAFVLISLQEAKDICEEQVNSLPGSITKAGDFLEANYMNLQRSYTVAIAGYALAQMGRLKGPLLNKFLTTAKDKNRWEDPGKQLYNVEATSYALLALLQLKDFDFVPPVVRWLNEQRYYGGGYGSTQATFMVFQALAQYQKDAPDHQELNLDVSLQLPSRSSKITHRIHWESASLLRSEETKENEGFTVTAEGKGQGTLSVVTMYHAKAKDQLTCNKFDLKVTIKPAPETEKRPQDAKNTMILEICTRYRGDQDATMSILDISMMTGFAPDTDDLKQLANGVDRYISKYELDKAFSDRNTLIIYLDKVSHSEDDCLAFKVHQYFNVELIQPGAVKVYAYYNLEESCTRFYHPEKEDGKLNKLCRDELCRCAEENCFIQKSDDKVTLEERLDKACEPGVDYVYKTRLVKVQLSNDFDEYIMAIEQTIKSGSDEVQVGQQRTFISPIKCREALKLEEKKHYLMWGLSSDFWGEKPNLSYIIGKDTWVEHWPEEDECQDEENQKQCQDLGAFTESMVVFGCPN
The target of test [5] is His-C3d-Avi, biotinylated. Put plainly: SPR.
The target of test [6] is His-ISG65_(18-363) Lys97Ala (T. b. gambiense). In words: SPR; His-ISG65_(18-363) covalently immobilised via amine coupling; C3a (8-0.25 µM) flown over at 30 µl/min, 100 s association, 300 s dissociation; regeneration 1 M NaCl.
In test [7] the target is His-ISG65_(18-363) Glu302Ala (T. b. gambiense). The description is as above.
The target in test [8] is His-ISG65_(18-363), extracellular domain of invariant surface glycoprotein 65 of T. b. gambiense (T. b. gambiense). The test is described as above.
For test [9] the target is unchanged. Put plainly: cross-linking; ISG65 and C3b mixed 2:1, 100x molar excess of DSA, 20 mM HEPES pH 7.5, 150 mM NaCl, room temperature 30 min; SDS-PAGE.

Chain of human complement C3a (P01024 672-748): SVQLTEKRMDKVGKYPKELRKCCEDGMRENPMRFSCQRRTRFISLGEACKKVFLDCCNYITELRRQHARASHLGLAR
Chain of Alexa Fluor 594 labelled human C3b (human) (P01024 23-667, chain 1 of 2): as the sequence (P01024 23-667, chain 1 of 2) above
Chain of Alexa Fluor 594 labelled human C3b (human) (P01024 749-1663, chain 2 of 2): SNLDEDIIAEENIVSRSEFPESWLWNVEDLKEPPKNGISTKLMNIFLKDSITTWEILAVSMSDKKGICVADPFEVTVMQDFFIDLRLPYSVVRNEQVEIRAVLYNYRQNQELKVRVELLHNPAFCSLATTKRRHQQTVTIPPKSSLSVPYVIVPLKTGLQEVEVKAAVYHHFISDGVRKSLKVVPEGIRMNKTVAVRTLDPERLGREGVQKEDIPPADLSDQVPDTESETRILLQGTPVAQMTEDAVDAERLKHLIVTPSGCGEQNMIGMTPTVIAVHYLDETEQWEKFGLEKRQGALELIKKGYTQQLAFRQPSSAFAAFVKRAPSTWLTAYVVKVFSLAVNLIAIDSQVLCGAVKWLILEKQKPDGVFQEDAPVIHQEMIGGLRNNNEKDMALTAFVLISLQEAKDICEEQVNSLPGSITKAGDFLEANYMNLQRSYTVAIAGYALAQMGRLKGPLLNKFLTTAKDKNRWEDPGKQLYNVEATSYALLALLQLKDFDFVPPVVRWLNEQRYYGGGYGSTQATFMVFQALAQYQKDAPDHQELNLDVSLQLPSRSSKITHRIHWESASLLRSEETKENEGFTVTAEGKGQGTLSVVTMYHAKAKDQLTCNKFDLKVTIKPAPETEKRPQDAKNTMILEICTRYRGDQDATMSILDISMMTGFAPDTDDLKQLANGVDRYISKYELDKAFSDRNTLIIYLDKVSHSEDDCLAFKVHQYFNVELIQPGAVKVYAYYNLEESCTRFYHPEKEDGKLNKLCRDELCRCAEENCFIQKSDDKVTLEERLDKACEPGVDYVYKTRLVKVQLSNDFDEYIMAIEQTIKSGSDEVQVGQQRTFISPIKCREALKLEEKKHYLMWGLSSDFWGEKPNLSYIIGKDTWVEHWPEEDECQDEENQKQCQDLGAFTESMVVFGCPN

In the case of “C3MA, methylamine-treated human C3 (from UniProt P01024 23-667; P01024 672-1663) (natural protein)”, the Kd – broadly, the equilibrium constant for the complex coming apart – in [1] is 18 nM.
Substance His-C3d Arg1134Ala (domain or fragment) showed a KD relative to wild type (so in the source) in test [1] of 30%.
On to “His-C3d, recombinant human C3d (domain or fragment)”, for which the equilibrium dissociation constant (Kd) in test [1] stood at 7 nM.
Take “His-ISG65_(18-363) Trp211Ala (domain or fragment)”: the KD relative to wild type (so in the source) in [2] was 42%.
Consider “His-ISG65_(18-363), extracellular domain of invariant surface glycoprotein 65 of T. b. gambiense (domain or fragment)”, for which, in [3], the percent reduction of C3b surface binding to T. b. gambiense cells came out at 60%. In addition, the AP50 haemolysis assay: lysis of rabbit erythrocytes in human serum after activation of the alternative pathway, soluble ISG65 7.5-0 µM in test [4] is below 90%.
“His-ISG65_(18-363), extracellular domain of invariant surface glycoprotein 65 of T. b. gambiense T297A”: in [5], the percent of parent turned out to be 15%.
Same read-out and setting: next, “His-ISG65_(18-363), extracellular domain of invariant surface glycoprotein 65 of T. b. gambiense Y70A”: 36%.
Consider “human complement C3a (from UniProt P01024 672-748) (domain or fragment)”, for which the figures for the equilibrium dissociation constant (Kd) in [6], in test [7] and in test [8] were 80000 nM, 78000 nM and 18000 nM, respectively.
For the substance “human complement C3b (from UniProt P01024 23-667; P01024 749-1663) (domain or fragment)”, the stoichiometry N (usually the number of molecules, sites or subunits per partner or assembly) in test [9] was 1. This substance displayed a dissociation constant Kd in test [1] of 81 nM.
The substance “native human complement C3 (from UniProt P01024 23-667; P01024 672-1663) (natural protein)” came in with an equilibrium dissociation constant (Kd) in [1] of 130 nM.
